Results from patent publication US20140096274A1 (published 2014).

T1: murine RANKL heterodimeric variant mD2 (mouse Dimer 2) (mouse, UniProt O35235 160-316; O35235 160-316)
T1 construct: range 160-316; Heterodimer of monomer A (His-tagged) and monomer B, co-expressed in E. coli; also called RANKL dimer 2; dRANKL D2; not shown: hexahistidine-tag fused to monomer A
T1 sequence (looked up) 1: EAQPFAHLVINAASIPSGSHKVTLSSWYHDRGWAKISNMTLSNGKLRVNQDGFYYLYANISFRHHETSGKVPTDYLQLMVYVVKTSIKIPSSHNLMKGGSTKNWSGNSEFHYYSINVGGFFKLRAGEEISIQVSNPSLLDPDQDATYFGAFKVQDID
T1 sequence (looked up) 2: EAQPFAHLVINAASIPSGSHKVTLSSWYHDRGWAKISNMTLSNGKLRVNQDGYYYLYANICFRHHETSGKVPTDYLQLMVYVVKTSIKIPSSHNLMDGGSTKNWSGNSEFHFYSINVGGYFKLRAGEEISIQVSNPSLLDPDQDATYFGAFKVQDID

T2: murine RANKL heterodimeric variant mD1 (mouse Dimer 1) (mouse, UniProt O35235 160-316; O35235 160-316)
T2 construct: range 160-316; Heterodimer of monomer A (His-tagged) and monomer B, co-expressed in E. coli; also called RANKL dimer 1; RANK-L Dimer 1; not shown: hexahistidine-tag fused to monomer A
T2 sequence (looked up) 1: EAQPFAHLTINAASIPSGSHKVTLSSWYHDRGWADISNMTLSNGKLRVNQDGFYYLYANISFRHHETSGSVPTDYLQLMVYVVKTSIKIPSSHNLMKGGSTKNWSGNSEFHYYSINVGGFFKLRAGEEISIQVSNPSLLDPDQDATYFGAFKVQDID
T2 sequence (looked up) 2: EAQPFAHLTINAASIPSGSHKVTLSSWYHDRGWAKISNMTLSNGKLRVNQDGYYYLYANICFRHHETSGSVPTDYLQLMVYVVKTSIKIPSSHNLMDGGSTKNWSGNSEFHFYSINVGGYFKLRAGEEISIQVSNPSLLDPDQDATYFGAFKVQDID

T3: human RANK-Fc (human, UniProt Q9Y6Q6 30-212)
T3 construct: also called hRANK-Fc; hRANK-FC; not shown: Fc part of the bought fusion; not described
T3 sequence (looked up): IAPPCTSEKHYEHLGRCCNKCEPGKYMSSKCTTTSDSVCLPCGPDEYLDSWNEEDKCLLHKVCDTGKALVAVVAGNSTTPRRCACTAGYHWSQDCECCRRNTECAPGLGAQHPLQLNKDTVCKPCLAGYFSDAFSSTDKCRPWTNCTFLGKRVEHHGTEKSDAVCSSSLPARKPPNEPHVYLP

B1: murine RANK-Fc (Fc fusion, mouse, UniProt O35305 31-214, looked up)
chain: VTPPCTQERHYEHLGRCCSRCEPGKYLSSKCTPTSDSVCLPCGPDEYLDTWNEEDKCLLHKVCDAGKALVAVDPGNHTAPRRCACTAGYHWNSDCECCRRNTECAPGFGAQHPLQLNKDTVCTPCLLGFFSDVFSSTDKCKPWTNCTLLGKLEAHQGTTESDVVCSSSMTLRRPPKEAQAYLPS
notes: also called mRANK-Fc; mRANK-FC; not shown: Fc part of the bought fusion; not described

Experiments:
[1] = biological target: T1, murine RANKL heterodimeric variant mD2 …; experiment: SPR, mRANK-Fc captured at low density on C1 chip, 1:1 Langmuir fit, mean of three experiments
Description: (§1) SPR measurements were performed using ˜1500-2000 RU of captured mRANK-Fc on the surface of a CM5 sensor chip (FIGS. 15B and C). This is a density that results in a mean ratio of RANKL:RANK of approx 1:3 (52). […] (Table 5, below) In contrast, the ratio of binding of RANKL variants mD1 and mD2 to mRANK-Fc seems hardly to be affected by receptor density (Table 5). The values obtained after injecting 500 nM of the dimeric variants correlate to binding of 1.5 monomeric subunits by mD1 and 1.6 monomeric subunits by mD2.
(§2) Kinetic binding parameters were also measured for mD1 and mD2 binding to mRANK-FC in real time using SPR using murine RANKL-WT as a control (FIG. 15; table 8). RANKL dimer binding curves to mRANK-Fc captured at low density on the surface of a C1 sensorchip were recorded using concentrations ranging from 100 pM to 562 nM. At very low receptor density, RANKL proteins bind only one receptor molecule, allowing the data to be fitted to a Langmuir 1:1 interaction model (29). RANKL WT needed a very low density (<20 resonance units (RU)) to come close to a 1:1 ratio (FIG. 3A). […] Maximum binding of 5.5 RU is reached, which is slightly lower than the expected Rₘₐₓ value of 6.8 RU for a 1:1 ratio, but definitely larger than 3.4 RU, the Rₘₐₓ value expected for a binding ratio of 2 molecules of RANK per flag-mRANKL WT trimer. Similar to mRANKL WT, binding of RANKL mD1 or mD2 to mRANK-Fc results in slightly lower Rₘₐₓ values than expected for a 1:1 binding ratio: 24 RU D1 compared to 26 RU, and 20 RU D2 compared to 23 RU (FIG. 15A). These binding ratio's could be reached with mD1 and mD2 at densities of mRANK-Fc of <50 RU. The approximate 1:1 binding of RANKL proteins to mRANK-Fc allows fitting the data to the 1:1 Langmuir binding model.

[2] = biological target: T2, murine RANKL heterodimeric variant mD1 …; experiment: as above
Description: as §1, §2

[3] = biological target: T1, murine RANKL heterodimeric variant mD2 …; experiment: SPR single cycle kinetics, mRANK-Fc captured at 20-40 RU, 1:1 fit
Description: (§3) Considering the high similarity between human RANKL and murine RANKL (>88%) the murine dimers were also tested for hRANK binding. Binding to hRANK-Fc and mRANK-Fc (both from R&D Systems) was recorded for five consecutive concentrations of murine flag RANKL WT, D1 (mD1) or D2 (mD2) (˜0.3-15 nM) using SPR with a single cycle kinetics based approach. The capture level of mRANK-Fc and hRANK-Fc was low (20-40 RU) in order to ensure 1:1 binding. Both WT and the D1 and D2 dimeric variants bound with high affinity towards the mRANK receptor and to the human RANK receptor (FIG. 16: Table 8).

[4] = biological target: T2, murine RANKL heterodimeric variant mD1 …; experiment: as above
Description: as §3

murine RANK-Fc = biological target: B1; experiment: SPR (Biacore T100) single cycle kinetics, mRANK-Fc captured on protein A at 200 RU, 1:1 fit
Description: (§4) FIG. 35. Binding of dimeric human RANKL variants and human RANKL WT towards murine RANK at 37° C. (left) or human RANK (right) receptor. Receptors were captured at a level of 200 RU using a Protein A (Sigma) modified surface of a CM5 chip (Biacore GE Lifesciences). Receptor binding curves of purified human hD1.3 and hD2.3 variants and human RANKL WT (E. coli produced, R&D systems) were recorded in real time using the single cycle kinetics method (Biacore) using a Biacore T100 (Biacore, GE Lifescience). Ligands were injected in 5 consecutive injection from 1 nM to 100 nM. After subtracting the signal from the reference channel and buffer injections the resulting binding curves were fitted to a 1:1 interaction model using the BiaEvaluation software (Biacore GE Lifescience). Flow rate was 50 ul/min and protein A surface was regenerated using 10 mM Glycine pH 2 solution, murine RANK-Fc and human RANK-Fc were obtained from R&D systems. Running buffer was HBS-EP+ (Biacore GE Lifescience).

human RANK-Fc = biological target: T3, human RANK-Fc; experiment: SPR (Biacore T100) single cycle kinetics, hRANK-Fc captured on protein A at 200 RU, 1:1 fit
Description: as §4

Row | Ka [1] | Kd [1] | koff [1] | kon [1] | Ka [2] | Kd [2] | koff [2] | kon [2] | Kd [3] | koff [3] | kon [3] | Kd [4] | koff [4] | kon [4] | Kd (murine RANK-Fc) | koff (murine RANK-Fc) | kon (murine RANK-Fc) | Kd (human RANK-Fc) | koff (human RANK-Fc) | kon (human RANK-Fc) | Binder
1 | 2.1e+11 M⁻¹ | 0.01 nM | 4.3e-05 s⁻¹ | 4.9e+06 M⁻¹ s⁻¹ | 2.7e+10 M⁻¹ | 0.146 nM | 0.00015 s⁻¹ | 5.8e+06 M⁻¹ s⁻¹ | 0.00855 nM | 5.76e-05 s⁻¹ | 6.73e+06 M⁻¹ s⁻¹ | 0.0439 nM | 0.000247 s⁻¹ | 5.93e+06 M⁻¹ s⁻¹ | – | – | – | – | – | – | B1
2 | – | – | – | – | – | – | – | – | – | – | – | – | – | – | 0.136 nM | 0.000142 s⁻¹ | 1.04e+06 M⁻¹ s⁻¹ | 0.267 nM | 0.00023 s⁻¹ | 861000 M⁻¹ s⁻¹ | trimeric human RANKL WT (E. coli produced, R&D Systems) (ligand, UniProt O14788 140-317, looked up, Bought protein; also called hWT) IRAEKAMVDGSWLDLAKRSKLEAQPFAHLTINATDIPSGSHKVSLSSWYHDRGWAKISNMTFSNGKLIVNQDGFYYLYANICFRHHETSGDLATEYLQLMVYVTKTSIKIPSSHTLMKGGSTKYWSGNSEFHFYSINVGGFFKLRSGEEISIEVSNPSLLDPDQDATYFGAFKVRDID
3 | – | – | – | – | – | – | – | – | – | – | – | – | – | – | 0.211 nM | 0.00019 s⁻¹ | 899000 M⁻¹ s⁻¹ | 0.345 nM | 0.000275 s⁻¹ | 798000 M⁻¹ s⁻¹ | human RANKL heterodimeric variant hD1-3 (ligand, Heterodimer expressed in E. coli BLR (DE3); copies: 1 + 1) chain 1: MGSSHHHHHHSQDPEAQPFAHLTINATDIPSGSHKVSLSSWYHDRGWADISNMTFSNGKLIVNQDGFYYLYANISFRHHETSGDLATEYLQLMVYVTKTSEKIPSSHTLMKGGSTKYWSGNSEFHYYSINVGGFFKLRSGEEISIEVSNPSLLDPDQDATYFGAFKVRDID chain 2: MEAQPFAHLTINATDIPSGSHKVSLSSWYHDRGWAKISNMTFSNGKLIVNQDGYYYLYANICFRHHETSGDLATEYLQLMVYVTKTSEKIPSSHTLMDGGSTKYWSGNSEFHFYSINVGGYFKLRSGEEISIEVSNPSLLDPDQDATYFGAFKVRDID
4 | – | – | – | – | – | – | – | – | – | – | – | – | – | – | 0.0504 nM | 8.32e-05 s⁻¹ | 1.65e+06 M⁻¹ s⁻¹ | 0.0766 nM | 8.87e-05 s⁻¹ | 1.16e+06 M⁻¹ s⁻¹ | human RANKL heterodimeric variant hD2-3 (ligand, Heterodimer expressed in E. coli BLR (DE3); also called hRANKL D2.3; copies: 1 + 1) chain 1: MGSSHHHHHHSQDPEAQPFAHLVINATDIPSGSHKVSLSSWYHDRGWAKISNMTFSNGKLIVNQDGFYYLYANISFRHHETSGKLATEYLQLMVYVTKTSEKIPSSHTLMKGGSTKYWSGNSEFHYYSINVGGFFKLRSGEEISIEVSNPSLLDPDQDATYFGAFKVRDID chain 2: MEAQPFAHLVINATDIPSGSHKVSLSSWYHDRGWAKISNMTFSNGKLIVNQDGYYYLYANICFRHHETSGKLATEYLQLMVYVTKTSEKIPSSHTLMDGGSTKYWSGNSEFHFYSINVGGYFKLRSGEEISIEVSNPSLLDPDQDATYFGAFKVRDID
